B1: Homeobox protein cut-like 1, residues 941 to 1008; numbered along this chain, P39880 (parent)
chain: QEVDTIELTRQVKEKLAKNGICQRIFGEKVLGLSQGSVSDMLSRPKPWSKLTQKGREPFIRMQLWLNG

Consider 40 variants from the Human Domainome abundance scans (Beltran et al. 2025).

± gives the uncertainty stated by the source.

The variants in this series derive from B1. The series can be described thus: abundance fitness (aPCA) (normalised: wild type 0, dead -1); higher = more abundant; growth selection in yeast, the domain comes from the species named. As to conditions: Homo sapiens.
For QEVDTIELTRQVKEKLAKNGICQRIFGEKVLGLSQGSVSDMLSRPKPWSKLTQKGREPFTRMQLWLNG [I60T], the abundance fitness is -0.008 ± 0.079. On to QEVDTIELTRQVKEKLAKNGICQRIFGEKVLGLSQGSVSDMLSRPKPWSKLTQKGREPFQRMQLWLNG [I60Q], for which the abundance fitness was -0.142 ± 0.084. Consider QEVDTIELTRQVKEKLAKNGICQRIFGEKVLGLSQGSVSDMLSRPKPWSKLTQKGREPFDRMQLWLNG [I60D], for which the abundance fitness is -0.29 ± 0.11. As for QEVDTIELTRQVKEKLAKNGICQRIFGEKVLGLSQGSVSDMLSRPKPWSKLTQKGREPFERMQLWLNG [I60E], the abundance fitness was -0.152 ± 0.086. As for QEVDTIELTRQVKEKLAKNGICQRIFGEKVLGLSQGSVSDMLSRPKPWSKLTQKGREPFKRMQLWLNG [I60K], the abundance fitness came out at 0.013 ± 0.081. With QEVDTIELTRQVKEKLAKNGICQRIFGEKVLGLSQGSVSDMLSRPKPWSKLTQKGREPFLRMQLWLNG [I60L], the abundance fitness was -0.015 ± 0.052. On to QEVDTIELTRQVKEKLAKNGICQRIFGEKVLGLSQGSVSDMLSRPKPWSKLTQKGREPVIRMQLWLNG [F59V], for which the abundance fitness is -0.761 ± 0.064. In the case of QEVDTIELTRQVKEKLAKNGICQRIFGEKVLGLSQGSVSDMLSRPKPWSKLTQKGREPTIRMQLWLNG [F59T], the abundance fitness is -0.686 ± 0.12. On to QEVDTIELTRQVKEKLAKNGICQRIFGEKVLGLSQGSVSDMLSRPKPWSKLTQKGREPNIRMQLWLNG [F59N], for which the abundance fitness was -1.2 ± 0.24. For the variant QEVDTIELTRQVKEKLAKNGICQRIFGEKVLGLSQGSVSDMLSRPKPWSKLTQKGREPHIRMQLWLNG [F59H], the abundance fitness is -1.18 ± 0.25. Consider QEVDTIELTRQVKEKLAKNGICQRIFGEKVLGLSQGSVSDMLSRPKPWSKLTQKGREPRIRMQLWLNG [F59R], for which the abundance fitness was -0.7 ± 0.071. Regarding QEVDTIELTRQVKEKLAKNGICQRIFGEKVLGLSQGSVSDMLSRPKPWSKLTQKGREPMIRMQLWLNG [F59M], the abundance fitness is -0.568 ± 0.071. Next, QEVDTIELTRQVKEKLAKNGICQRIFGEKVLGLSQGSVSDMLSRPKPWSKLTQKGREPSIRMQLWLNG [F59S]: -0.995 ± 0.1; QEVDTIELTRQVKEKLAKNGICQRIFGEKVLGLSQGSVSDMLSRPKPWSKLTQKGREPWIRMQLWLNG [F59W]: -0.128 ± 0.084; QEVDTIELTRQVKEKLAKNGICQRIFGEKVLGLSQGSVSDMLSRPKPWSKLTQKGREPIIRMQLWLNG [F59I]: -0.525 ± 0.085. Next, QEVDTIELTRQVKEKLAKNGICQRIFGEKVLGLSQGSVSDMLSRPKPWSKLTQKGREPQIRMQLWLNG [F59Q]: -1.13 ± 0.2; QEVDTIELTRQVKEKLAKNGICQRIFGEKVLGLSQGSVSDMLSRPKPWSKLTQKGREPKIRMQLWLNG [F59K]: -0.954 ± 0.11; QEVDTIELTRQVKEKLAKNGICQRIFGEKVLGLSQGSVSDMLSRPKPWSKLTQKGREPPIRMQLWLNG [F59P]: -0.833 ± 0.11. For QEVDTIELTRQVKEKLAKNGICQRIFGEKVLGLSQGSVSDMLSRPKPWSKLTQKGREPGIRMQLWLNG [F59G], the abundance fitness is -1.17 ± 0.13. QEVDTIELTRQVKEKLAKNGICQRIFGEKVLGLSQGSVSDMLSRPKPWSKLTQKGREPAIRMQLWLNG [F59A]: the abundance fitness was -0.813 ± 0.099. Take QEVDTIELTRQVKEKLAKNGICQRIFGEKVLGLSQGSVSDMLSRPKPWSKLTQKGREPCIRMQLWLNG [F59C]: the abundance fitness is -0.817 ± 0.23. As for QEVDTIELTRQVKEKLAKNGICQRIFGEKVLGLSQGSVSDMLSRPKPWSKLTQKGREPEIRMQLWLNG [F59E], the abundance fitness is -0.431 ± 0.091.

As for QEVDTIELTRQVKEKLAKNGICQRIFGEKVLGLSQGSVSDMLSRPKPWSKLTQKGREPYIRMQLWLNG [F59Y], the abundance fitness was -0.006 ± 0.092. On to QEVDTIELTRQVKEKLAKNGICQRIFGEKVLGLSQGSVSDMLSRPKPWSKLTQKGRESFIRMQLWLNG [P58S], for which the abundance fitness is -0.093 ± 0.063. For the variant QEVDTIELTRQVKEKLAKNGICQRIFGEKVLGLSQGSVSDMLSRPKPWSKLTQKGREKFIRMQLWLNG [P58K], the abundance fitness is -0.04 ± 0.073. On to QEVDTIELTRQVKEKLAKNGICQRIFGEKVLGLSQGSVSDMLSRPKPWSKLTQKGRETFIRMQLWLNG [P58T], for which the abundance fitness was 0.052 ± 0.076. Take QEVDTIELTRQVKEKLAKNGICQRIFGEKVLGLSQGSVSDMLSRPKPWSKLTQKGRENFIRMQLWLNG [P58N]: the abundance fitness was found to be 0.025 ± 0.089.

On to QEVDTIELTRQVKEKLAKNGICQRIFGEKVLGLSQGSVSDMLSRPKPWSKLTQKGREAFIRMQLWLNG [P58A], for which the abundance fitness is -0.102 ± 0.072.

With QEVDTIELTRQVKEKLAKNGICQRIFGEKVLGLSQGSVSDMLSRPKPWSKLTQKGREQFIRMQLWLNG [P58Q], the abundance fitness was -0.036 ± 0.074. With QEVDTIELTRQVKEKLAKNGICQRIFGEKVLGLSQGSVSDMLSRPKPWSKLTQKGREYFIRMQLWLNG [P58Y], the abundance fitness was -0.1 ± 0.083. Take QEVDTIELTRQVKEKLAKNGICQRIFGEKVLGLSQGSVSDMLSRPKPWSKLTQKGREIFIRMQLWLNG [P58I]: the abundance fitness came to 0.117 ± 0.083. Next, QEVDTIELTRQVKEKLAKNGICQRIFGEKVLGLSQGSVSDMLSRPKPWSKLTQKGRECFIRMQLWLNG [P58C]: 0.099 ± 0.14. Take QEVDTIELTRQVKEKLAKNGICQRIFGEKVLGLSQGSVSDMLSRPKPWSKLTQKGREDFIRMQLWLNG [P58D]: the abundance fitness was -0.13 ± 0.12. The value for QEVDTIELTRQVKEKLAKNGICQRIFGEKVLGLSQGSVSDMLSRPKPWSKLTQKGREHFIRMQLWLNG [P58H] was -0.135 ± 0.096; that for QEVDTIELTRQVKEKLAKNGICQRIFGEKVLGLSQGSVSDMLSRPKPWSKLTQKGREGFIRMQLWLNG [P58G] was -0.201 ± 0.081. In the case of QEVDTIELTRQVKEKLAKNGICQRIFGEKVLGLSQGSVSDMLSRPKPWSKLTQKGRELFIRMQLWLNG [P58L], the abundance fitness was 0.109 ± 0.044. The value for QEVDTIELTRQVKEKLAKNGICQRIFGEKVLGLSQGSVSDMLSRPKPWSKLTQKGRERFIRMQLWLNG [P58R] was -0.049 ± 0.054. In the case of QEVDTIELTRQVKEKLAKNGICQRIFGEKVLGLSQGSVSDMLSRPKPWSKLTQKGREWFIRMQLWLNG [P58W], the abundance fitness is -0.007 ± 0.083. Next, QEVDTIELTRQVKEKLAKNGICQRIFGEKVLGLSQGSVSDMLSRPKPWSKLTQKGREVFIRMQLWLNG [P58V]: -0.014 ± 0.06; QEVDTIELTRQVKEKLAKNGICQRIFGEKVLGLSQGSVSDMLSRPKPWSKLTQKGREFFIRMQLWLNG [P58F]: 0.006 ± 0.079.
